Assays:
Assay in all cases: cell-based or functional assay
[1] = molecular target: HIV-1 Env of isolate 92RW009 (subtype A) (HIV-1)
[2] = molecular target: HIV-1 Env of isolate 92WR026 (pseudovirus) (HIV-1)
[3] = molecular target: HIV-1 Env of isolate 94 KE 105 (pseudovirus) (HIV-1)
[4] = molecular target: HIV-1 Env of isolate MGRM-C-017 (subtype C), on pseudovirus (HIV-1)
[5] = molecular target: HIV-1 Env of isolate MGRM-C-019 (subtype C), on pseudovirus (HIV-1)
[6] = molecular target: HIV-1 Env of isolate MGRM-C-022 (subtype C), on pseudovirus (HIV-1)
[7] = molecular target: HIV-1 Env of isolate MGRM-G-025 (subtype G) (HIV-1)
[8] = molecular target: HIV-1 Env of pseudovirus isolate APV-17 (clade B) (HIV-1)
[9] = molecular target: HIV-1 92RW024 envelope glycoprotein (Env) on pseudovirus (HIV-1 (clade A))
[10] = molecular target: HIV-1 94UG103 Env (HIV-1)
[11] = molecular target: HIV-1 Env of isolate 92RW020 (Clade A) (HIV-1)
[12] = molecular target: HIV-1 Env of isolate 92UG024 (clade D pseudovirus) (HIV-1)
[13] = molecular target: HIV-1 Env of isolate 92UG046 (clade D pseudovirus) (HIV-1)
[14] = molecular target: HIV-1 Env of isolate APV_17, clade B (HIV-1)
[15] = molecular target: HIV-1 Env of isolate MGRM-A-009 (clade A pseudovirus) (HIV-1)
[16] = molecular target: HIV-1 Env of isolate MGRM-D-002 (clade D pseudovirus) (HIV-1)
[17] = molecular target: HIV-1 Env of pseudovirus MGRM-G-015 (HIV-1)
[18] = molecular target: HIV-1 Env of pseudovirus MGRM-G-017 (HIV-1)
[19] = molecular target: HIV-1 Env of pseudovirus MGRM-G-027 (HIV-1)
[20] = molecular target: HIV-1 JRCSF Env (HIV-1) (UniProt P20871)
[21] = molecular target: HIV-1 MGRM-AG-005 Env (pseudovirus) (HIV-1)
[22] = molecular target: HIV-1 MGRM-D-018 Env (HIV-1)
[23] = molecular target: HIV-1 envelope glycoprotein (Env) of isolate MGRM-C-014 (HIV-1)
[24] = molecular target: HIV-1 Env of isolate MGRM-F1-022 (pseudovirus) (HIV-1)
[25] = molecular target: HIV-1 JR-CSF Env I414A (HIV-1 (isolate JR-CSF)) (UniProt P20871)
[26] = molecular target: HIV-1 JR-CSF Env N396A (HIV-1 (isolate JR-CSF)) (UniProt P20871)
[27] = molecular target: HIV-1 JR-CSF Env T303A (HIV-1 (isolate JR-CSF, clade B)) (UniProt P20871)
[28] = molecular target: HIV-1 Env of isolate 92UG001 (pseudovirus) (HIV-1)
[29] = molecular target: HIV-1 Env of isolate 92UG046 (pseudovirus) (HIV-1)
[30] = molecular target: HIV-1 Env of isolate 98CN009 (pseudovirus) (HIV-1)
[31] = molecular target: HIV-1 Env of isolate MGRM-A-011 (subtype A) (HIV-1)
[32] = molecular target: HIV-1 Env of isolate MGRM-D-004 (pseudovirus) (HIV-1)
[33] = molecular target: HIV-1 Env of isolate MGRM-D-011 (pseudovirus) (HIV-1)
[34] = molecular target: HIV-1 Env of isolate MGRM-F1-008 (HIV-1)
[35] = molecular target: HIV-1 Env of isolate MGRM-F1-016 (HIV-1)
[36] = molecular target: HIV-1 Env of isolate MGRM-F1-017 (HIV-1)
[37] = molecular target: HIV-1 Env of pseudovirus isolate MGRM-C-006 (clade C) (HIV-1)
[38] = molecular target: HIV-1 Env of pseudovirus isolate MGRM-C-017 (clade C) (HIV-1)
[39] = molecular target: HIV-1 Env of pseudovirus isolate MGRM-C-023 (clade C) (HIV-1)
[40] = molecular target: HIV-1 Env of pseudovirus isolate MGRM-C-024 (clade C) (HIV-1)

Chain of 4970_K22 (PGT-144) (antibody) (VH): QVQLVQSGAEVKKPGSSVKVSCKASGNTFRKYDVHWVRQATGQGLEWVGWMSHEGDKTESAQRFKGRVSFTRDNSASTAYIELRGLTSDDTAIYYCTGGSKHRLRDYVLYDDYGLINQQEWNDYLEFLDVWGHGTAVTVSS
Chain of 4970_K22 (PGT-144) (antibody) (VL): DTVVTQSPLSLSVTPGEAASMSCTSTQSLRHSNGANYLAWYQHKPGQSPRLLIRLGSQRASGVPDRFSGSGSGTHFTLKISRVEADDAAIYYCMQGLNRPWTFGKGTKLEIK
Chain of 4980_N08 (PGT-143) (antibody) (VH): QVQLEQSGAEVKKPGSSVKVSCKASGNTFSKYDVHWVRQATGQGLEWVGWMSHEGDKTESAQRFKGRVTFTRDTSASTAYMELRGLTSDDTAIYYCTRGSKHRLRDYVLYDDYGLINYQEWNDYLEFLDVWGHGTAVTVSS
Chain of 4980_N08 (PGT-143) (antibody) (VL): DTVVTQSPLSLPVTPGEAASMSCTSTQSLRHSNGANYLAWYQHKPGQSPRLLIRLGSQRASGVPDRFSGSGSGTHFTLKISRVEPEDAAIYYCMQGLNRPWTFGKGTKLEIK

Substance	IC50, pseudovirus neutralization [1]	IC50 (µg/mL), single-round pseudovirus neutralization [3]	IC50, single-round pseudovirus neutralization [4]	IC50, single-round pseudovirus neutralization [5]	IC50, single-round pseudovirus neutralization [6]	IC50 (µg/mL), pseudovirus neutralization [7]	IC50, pseudovirus neutralization [8]	IC50, pseudovirus neutralization [10]	IC50, pseudovirus neutralization [20]	IC50, pseudovirus neutralization [22]	IC50 (µg/mL), pseudovirus neutralization [24]	Fold IC50 increase relative to wild-type (pseudovirus neutralization) [25]	Fold IC50 increase relative to wild-type (pseudovirus neutralization) [26]	Fold IC50 increase relative to wild-type [27]	also measured
4980_N08 (PGT-143) (antibody)	0.01 µg/mL	0.368 µg/mL	5.17 µg/mL	0.004 µg/mL	0.103 µg/mL	> 50 µg/mL	1.11 µg/mL								IC50 (µg/mL), single-round pseudovirus neutralization [2]: 5.36 µg/mL
VRC01 (antibody)	0.187 µg/mL	0.499 µg/mL	0.366 µg/mL	1.13 µg/mL	13 µg/mL	0.292 µg/mL	0.477 µg/mL								
4970_K22 (PGT-144) (antibody)	0.893 µg/mL	0.29 µg/mL	23 µg/mL	0.513 µg/mL	2.58 µg/mL	> 50 µg/mL	10.3 µg/mL								IC50 (µg/mL), single-round pseudovirus neutralization [2]: 32.7 µg/mL
1496_C09 (PG9) (TCN-109) (antibody)								0.31 µg/mL	4.8 ng/mL	2.04 µg/mL					IC50 (µg/ml), pseudovirus neutralization [9]: 0.18 µg/mL; IC90 (neutralization of pseudovirus) [11]: 6.55 µg/mL; IC50, pseudovirus neutralization [12]: 1.91 µg/mL; IC50, pseudovirus neutralization [13]: 0.64 µg/mL; IC50 (µg/ml), pseudovirus neutralization [14]: 14.6 µg/mL; IC50 (µg/ml), pseudovirus neutralization [15]: 0.03 µg/mL; IC50, pseudovirus neutralization [16]: 0.027 µg/mL; IC50 (µg/ml), pseudovirus neutralization [17]: 1.51 µg/mL; IC50 (µg/ml), pseudovirus neutralization [18]: 0.03 µg/mL; IC50 (µg/ml), pseudovirus neutralization [19]: 0.01 µg/mL; IC50 (µg/ml), pseudovirus neutralization [21]: 29.7 µg/mL; IC50 (µg/ml), pseudovirus neutralization [23]: 0.64 µg/mL
5145_B14 (PGT-127) (antibody)											> 50 µg/mL	2.2 fold	2.4 fold	> 500 fold	
5123_A06 (PGT-125) (antibody)								0.0124 µg/mL	6 ng/mL	0.0382 µg/mL	> 50 µg/mL	0.3 fold	1.6 fold	> 250 fold	Neutralization by PGT-125, IC50 [21]: > 10 µg/mL; Neutralization by PGT-125, IC80 [21]: > 10 µg/mL; Neutralization by PGT-125, IC90 [21]: > 10 µg/mL; Neutralization by PGT-125, IC95 [21]: > 10 µg/mL
5141_B17 (PGT-126) (antibody)								0.0091 µg/mL	6.1 ng/mL	0.0093 µg/mL	> 50 µg/mL	0.4 fold	1.7 fold	> 250 fold	
5345_I01 (PGT-137) (antibody)															IC50 (µg/mL), pseudovirus neutralization [28]: > 50 µg/mL; IC50 (µg/mL), pseudovirus neutralization [29]: > 50 µg/mL; IC50 (µg/mL), pseudovirus neutralization [2]: 0.092 µg/mL; IC50 (µg/mL), pseudovirus neutralization [30]: 5.06 µg/mL; IC50, pseudovirus neutralization [31]: > 50 µg/mL; IC50 (µg/mL), pseudovirus neutralization [32]: > 50 µg/mL; IC50 (µg/mL), pseudovirus neutralization [33]: 6.3 µg/mL; IC50 (µg/mL), pseudovirus neutralization [34]: > 50 µg/mL; IC50 (µg/mL), pseudovirus neutralization [35]: > 50 µg/mL; IC50 (µg/mL), pseudovirus neutralization [36]: > 50 µg/mL; IC50, pseudovirus neutralization [37]: > 50 µg/mL; IC50, pseudovirus neutralization [38]: > 50 µg/mL; IC50, pseudovirus neutralization [39]: 0.23 µg/mL; IC50, pseudovirus neutralization [40]: > 50 µg/mL
4858_P08 (PGT-123) (antibody)								0.846 µg/mL	42.3 ng/mL	0.0047 µg/mL	0.075 µg/mL	0.3 fold	1.2 fold		

Source: US20240132578A1
